The results in this text go back to patent CN111333732A (UNIV CHINA PHARMA, dated 2020).

For test [1], the target named is T1, BCMA-Fc蛋白 (human, UniProt Q02223 1-54).
T1 construct: Captured on a CM5 chip through anti-human Fc antibody for SPR; also called BCMA抗原; not shown: Fc part, captured by anti-human Fc antibody
T1 sequence (looked up): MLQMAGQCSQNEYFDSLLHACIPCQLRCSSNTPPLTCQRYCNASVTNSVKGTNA
Kind of test: SPR, Biacore X100, BCMA-Fc captured by anti-human Fc on CM5, 2A9-MICA as analyte. On the technique in general: SPR reads the build-up and loss of mass on a sensor chip optically.

The target in test [2] is T2, NKG2D-Fc蛋白 (UniProt P26718 78-216, limits assumed).
T2 construct: Captured on a CM5 chip through anti-human Fc antibody for SPR; not shown: Fc part, captured by anti-human Fc antibody
T2 sequence (looked up): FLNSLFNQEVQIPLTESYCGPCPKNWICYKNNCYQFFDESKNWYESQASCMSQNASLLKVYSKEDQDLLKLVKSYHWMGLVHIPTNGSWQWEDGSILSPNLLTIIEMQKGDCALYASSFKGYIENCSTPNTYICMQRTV
Kind of test: SPR, Biacore X100, NKG2D-Fc captured by anti-human Fc on CM5, 2A9-MICA as analyte.

Test [3] addresses T1, BCMA-Fc蛋白. Kind of test: SPR, Biacore X100, BCMA-Fc captured by anti-human Fc on CM5, 2A9 as analyte.

B1: 双特异性抗体2A9-MICA (anti-human BCMA scFv 2A9 fused to human MICA extracellular regions 1-3) (bispecific antibody)
chain: MAEVQLQQSGAELVKPGASVKLSCTASGFNIKDTYMHWVKQRPEQGLEWIGRIDPANGNTKYDPKFQGKATITADTSSNTAYLQLSSLTSEDTAVYYCARWVYWGQGTTLTVSTGGGGSDVVMTQSPSSMYASLGERVTITCKASQDINSYLSWFQQKPGKSPKTLIYRANRLVDGVPSRFSGSGSGQDYSLTISSLEYEDMGIYYCLQYDEFPYTFGGGTKLEIKRGSGGGGSEPHSLRYNLTVLSWDGSVQSGFLAEVHLDGQPFLRYDRQKCRAKPQGQWAEDVLGNKTWDRETRDLTGNGKDLRMTLAHIKDQKEGLHSLQEIRVCEIHEDNSTRSSQHFYYDGELFLSQNLETEEWTVPQSSRAQTLAMNVRNFLKEDAMKTKTHYHAMHADCLQELRRYLESGVVLRRTVPPMVNVTRSEASEGNITVTCRASSFYPRNIILTWRQDGVSLSHDTQQWGDVLPDGNGTYQTWVATRICRGEEQRFTCYMEHSGNHSTHPVPSGKVLVLQSHW
notes: also called 抗体融合蛋白2A9-MICA; rG7S-MICA
One may read the Kd as the constant that tells how readily two partners part at equilibrium. Higher therefore signals a looser complex. For the molecule B1, the equilibrium dissociation constant (Kd) in test [1] amounted to 76 nM; in test [2], 3470 nM.

B2: 抗人BCMA单链抗体2A9 (scFv)
scFv: ASMAEVQLQQSGAELVKPGASVKLSCTASGFNIKDTYMHWVKQRPEQGLEWIGRIDPANGNTKYDPKFQGKATITADTSSNTAYLQLSSLTSEDTAVYYCARWVYWGQGTTLTVSTGGGGSDVVMTQSPSSMYASLGERVTITCKASQDINSYLSWFQQKPGKSPKTLIYRANRLVDGVPSRFSGSGSGQDYSLTISSLEYEDMGIYYCLQYDEFPYTFGGGTKLEIKR
notes: Parental scFv from phage display; also called rG7S
As to B2, the equilibrium dissociation constant (Kd) in test [3] was determined as 34.6 nM.
